Where two headings read alike, the source gives them in different places.

The target in series [1] is T1, Msi1 RBD1 (Mus musculus, UniProt Q61474 20-103). The series can be described thus: competition.
Another series has as its target Msi1 RBD2 (Mus musculus, UniProt Q61474 109-191). The experiment in a line: NMR HSQC titration.
Series [2] deals with T1, Msi1 RBD1. The experiment in a line: NMR HSQC titration.
In series [3] the target is T1, Msi1 RBD1. The experiment in a line: NMR HSQC titration. This is another data set of the same source.
A further series has as its target Msi1 RBD1-2 (Mus musculus, UniProt Q61474 20-191). The experiment in a line: NMR HSQC titration.

T1 sequence (Q61474 20-103): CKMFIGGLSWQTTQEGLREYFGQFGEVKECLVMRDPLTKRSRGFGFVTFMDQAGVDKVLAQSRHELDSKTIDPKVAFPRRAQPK
Msi1 RBD2, sequence (Q61474 109-191): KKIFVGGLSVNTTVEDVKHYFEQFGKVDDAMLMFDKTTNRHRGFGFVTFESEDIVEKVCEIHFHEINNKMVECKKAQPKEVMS
Msi1 RBD1-2, sequence (Q61474 20-191): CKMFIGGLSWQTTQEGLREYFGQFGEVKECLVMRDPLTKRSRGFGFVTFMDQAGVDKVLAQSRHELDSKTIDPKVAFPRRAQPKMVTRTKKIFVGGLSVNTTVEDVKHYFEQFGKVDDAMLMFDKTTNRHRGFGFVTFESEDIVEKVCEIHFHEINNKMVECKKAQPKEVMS

B1: numb6-4 (ssRNA)
RNA: GUAGUU
Consider B1, for which the binding signal with Msi1 RBD1 [1] was ~1 ratio of complex signal to numb6-2 complex.

B2: numb6-2 (ssRNA)
RNA: GGUAGU
Take B2: the binding result with Msi1 RBD2 and with Msi1 RBD1 [2] was “binds” in each case.

B3: numb5 (ssRNA)
RNA: GUAGU
As to B3, in the series with Msi1 RBD1 [3], the binding result is listed as “binds”.

B4: numb6-1 (ssRNA)
RNA: UAGGUA
Consider B4, for which the binding result in the series with Msi1 RBD2 is on record as “binds”.

B5: numb15 (ssRNA)
RNA: UAGGUAGUAGUUUUA
Regarding B5, the binding result with Msi1 RBD1-2 is on record as “binds”.

(Values after publication PMC3326303.)
